Data set [1] is described as follows: Estimated free fraction in blood, calculated from Kd* with [HSA]total 700 μM. The data set is classed as in vitro ADME. The note with it: human; [HSA]total set at 700 μM; read-out: Free Fraction est. in blood. The procedure: The free fraction in blood is estimated per the following equation, as derived by Trainor, Expert Opin. Drug Disc., 2007, 2(1):51-64, where [HSA]total is set at 700 μM. [formula]

Data set [2] concerns the target human serum proteins. The data set can be described thus: Apparent affinity to human serum proteins (Kd*) by EC50 shift analysis. In kind it is in vitro ADME. Conditions: nonlinear regression of EC50 shift with serum, n = 1, P = 700 μM for 100% serum. The source says: The measurement of apparent Kd values for serum protein by EC50 shift analysis provides a simple and rapid means of quantifying the propensity of experimental compounds to bind HSA and other serum proteins. A linear relationship exists between the apparent EC50 in the presence of serum protein (EC′50) and the amount of serum protein added to an in vitro assay. This relationship is defined by the binding affinity of the compound for serum proteins, expressed as Kd*. This term is an experimentally determined, apparent dissociation constant that may result from the cumulative effects of multiple, experimentally indistinguishable, binding events. The form of this relationship is presented here in Eq. 0.3, and its derivation can be found in Copeland et al, Biorg. Med. Chem. Lett. 2004, 14:2309-2312. [formula] A significant proportion of serum protein binding can be ascribed to drug interactions with HSA, due to the very high concentration of this protein in serum (35-50 g/L or 530-758 μM). To calculate the Kd value for these compounds we have assumed that the shift in EC50 upon protein addition can be ascribed fully to the HSA present in the added serum, where P is 700 μM for 100% serum, P is 70 μM for 10% serum, etc. We further made the simplifying assumption that all of the compounds bind HSA with a 1:1 stoichiometry, so that the term n in Eq. (0.3) is fixed at unity. With these parameters in place we calculated the Kd* value for each stapled peptide from the changes in EC50 values with increasing serum (and serum protein) concentrations by nonlinear regression analysis of Eq. 0.3 using Mathematica 4.1 (Wolfram Research, Inc., www.wolfram.com). EC′50 values in whole blood are estimated by setting P in Eq. 0.3 to 700 μM [HSA].

Data set [3] relates to Jurkat cell line. The data set is classed as cell-based. The note with it: for EC50: 24 h. The procedure: Jurkat cell line (Clone E6-1, ATCC catalog #TIB-152) is grown in specific serum-supplemented media (RPMI-1640, Invitrogen catalog #22400) as recommended by ATCC. A day prior to the initiation of the study, cells are split at optimal cell density (2×10^5-5×10^5 cells/ml) to assure actively dividing cells. The next day, cells are washed twice in serum-free Opti-MEM media (Invitrogen, Catalog #51985) and cells are then plated at optimal cell density (10,000 cells/well) in 50 μl Opti-MEM media or Opti-MEM supplemented with 2% or 10% human serum (Bioreclamation, catalog #HMSRM) in 96-well white tissue culture plate (Nunc, catalog #136102).
For serum free experiment, crosslinked polypeptides are diluted from 2 mM stocks (100% DMSO) in sterile water to prepare 400 μM working solutions. The crosslinked polypeptides and controls are diluted 10-fold first and then serially two-fold diluted in Opti-MEM in dosing plates to provide concentrations of between 1.2 and 40 μM. 50 μl of each dilution is then added to the appropriate wells of the test plate to achieve final concentrations of the polypeptides equal to between 0.6 to 20 μM. For studies using Opti-MEM supplemented with human serum (Bioreclamation, catalog #HMSRM), crosslinked polypeptides are diluted from 10 mM stocks (100% DMSO) in sterile water to prepare 2 mM working solutions. The crosslinked polypeptides and controls are diluted 10-fold first and then serially two-fold diluted in Opti-MEM in the presence of 2% or 10% of human serum to provide concentrations of the polypeptides equal to between 6.25 to 200 μM in dosing plates. 50 μl of each dilution is then added to the appropriate wells of the test plate to achieve final concentrations of the polypeptides equal to between 3.125 to 100 μM. Controls included wells without polypeptides containing the same concentration of DMSO as the wells containing the macrocycles, wells containing 0.1% Triton X-100 and wells containing no cells. Plates are incubated for 24 hours at 37° C. in humidified 5% CO2 atmosphere.
At the end of the incubation period, CellTiter-Glo assay is performed according to manufacturer's instructions (Promega, catalog #G7573) and luminescence is measured using Synergy HT Plate reader (BioTek). Luminescence correlates with viability. A reduction in viability reflects the ability of the test compounds to induce programmed cell death via BAX and BAK.

Data set [4] deals with T1, human serum proteins (binding ascribed fully to human serum albumin, HSA) (human, UniProt P02768 25-609). The data set can be described thus: cell-based or functional assay.
T1 sequence (P02768 25-609 limits assumed): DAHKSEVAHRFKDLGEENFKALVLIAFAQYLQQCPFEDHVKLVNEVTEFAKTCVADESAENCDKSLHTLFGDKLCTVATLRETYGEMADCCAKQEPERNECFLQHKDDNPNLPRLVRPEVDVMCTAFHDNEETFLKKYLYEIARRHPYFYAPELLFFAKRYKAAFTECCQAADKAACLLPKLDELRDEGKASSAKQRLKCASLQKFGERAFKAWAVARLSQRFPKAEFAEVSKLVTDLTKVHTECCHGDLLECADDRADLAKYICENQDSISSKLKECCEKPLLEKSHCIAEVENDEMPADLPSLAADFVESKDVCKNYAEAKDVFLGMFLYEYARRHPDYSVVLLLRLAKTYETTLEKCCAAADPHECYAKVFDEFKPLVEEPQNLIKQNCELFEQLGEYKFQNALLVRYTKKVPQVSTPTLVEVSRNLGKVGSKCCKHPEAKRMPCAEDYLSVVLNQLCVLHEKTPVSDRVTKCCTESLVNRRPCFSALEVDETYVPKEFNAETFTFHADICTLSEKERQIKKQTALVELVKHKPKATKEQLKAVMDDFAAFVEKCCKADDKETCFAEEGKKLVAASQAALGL
Data set [5] deals with T1, human serum proteins (binding ascribed …). The experiment in a line: apparent Kd* by EC50 shift analysis: Jurkat viability EC50 at 0, 2 and 10% human serum, fit assuming 1:1 binding to HSA.

Bridge positions count the residues as written; N and C are the ends. Square brackets hold non-standard residues; d marks the D form. * marks the point of attachment. S5 = C=CCCC[C@](C)(N)C(=O)O; Nle = CCCC[C@H](N)C(=O)O; Aib = CC(C)(N)C(=O)O; Propionyl = CCC(=O)*

Here are results for 16 molecules from patent publication US9175045B2, “Peptidomimetic macrocycles” (Aileron Therapeutics, Inc., priority 2008, dated 2015).

`CC[C@H](C)[C@H](NC(=O)[C@H](Cc1c[nH]c2ccccc12)NC(=O)[C@H](CCCNC(=N)N)NC(C)=O)C(=O)N[C@@H](C)C(=O)N[C@@H](CCC(N)=O)C(=O)N[C@@H](C)C(=O)N[C@@H](CC(C)C)C(=O)N[C@@H](CCCNC(=N)N)C(=O)NC1(C)CCCC=CCCCC(C)(C(=O)N[C@@H](Cc2ccccc2)C(=O)N[C@@H](CC(N)=O)C(=O)N[C@@H](C)C(=O)N[C@@H](Cc2ccc(O)cc2)C(=O)N[C@@H](Cc2ccc(O)cc2)C(=O)N[C@@H](C)C(=O)N[C@@H](CCCNC(=N)N)C(=O)N[C@@H](CCCNC(=N)N)C(N)=O)NC(=O)[C@H](CC(N)=O)NC(=O)CNC(=O)[C@H]([C@@H](C)CC)NC1=O` (stereo partly shown) [Compound 15, Ac-RWIAQALR$1GN$FNAYYARR-NH2]: in data set [1], the fraction unbound was 0.0084. Moreover, the Kd in data set [2] was 5.1 µM. Besides, in data set [3], the EC50 stood at 0.9 µM.
Turning to `CC[C@H](C)[C@H](NC(C)=O)C(=O)N[C@@H](Cc1c[nH]c2ccccc12)C(=O)N[C@H](C(=O)N[C@@H](C)C(=O)N[C@@H](CCC(N)=O)C(=O)N[C@@H](CCC(=O)O)C(=O)N[C@@H](CC(C)C)C(=O)N[C@@H](CCCNC(=N)N)C(=O)NC1(C)CCCC=CCCCC(C)(C(=O)N[C@@H](Cc2ccccc2)C(=O)N[C@@H](CC(N)=O)C(=O)N[C@@H](C)C(=O)N[C@@H](Cc2ccc(O)cc2)C(=O)N[C@@H](Cc2ccc(O)cc2)C(=O)N[C@@H](C)C(=O)N[C@@H](CCCNC(=N)N)C(=O)N[C@@H](CCCNC(=N)N)C(N)=O)NC(=O)[C@H](CC(=O)O)NC(=O)CNC(=O)[C@H]([C@@H](C)CC)NC1=O)[C@@H](C)CC` (stereo partly shown) [Compound 10, Ac-IWIAQELR$IGD$FNAYYARR-NH2], the fraction unbound in data set [1] was less than 0.001. The Kd in data set [2] was less than 0.1 µM. The EC50 in data set [3] worked out at 1.3 µM. Moreover, the “efficacy in serum-free media and in the presence of serum” value in data set [3] (statement in words) is reported as “high efficacy in serum-free media, which is substantially reduced in the presence of serum”.

B1: Compound 8 (crosslinked polypeptide derived from human BID BH3) (peptide)
peptide: Propionyl-RNIARHLA[S5]VGD[S5][Nle][Aib]RSI-NH2
modifications: staple 9-13
Turning to B1, in data set [4], the “2% serum EC50 (Jurkat cell viability, CellTiter-Glo)” value (“2% serum EC50” below) was 10.5 µM and the “10% serum EC50 (Jurkat cell viability, CellTiter-Glo)” value (shortened to “10% serum EC50”) turned out to be 37.7 µM. In addition, in data set [5], the Kd was determined as 2.3 µM.

B2: Compound 19 (crosslinked polypeptide derived from human MAML peptide sequence) (peptide)
peptide: Ac-ALRRRI[S5]LCA[S5]HHST-NH2
modifications: staple 7-11
notes: also called hMAML
For the molecule B2, in data set [4], the “2% serum EC50” value was found to be 14.7 µM and the “10% serum EC50” value came out at 57.5 µM. Besides, the Kd in data set [5] stood at 0.6 µM.

B3: Compound 12 (crosslinked polypeptide derived from human BIM BH3) (peptide)
peptide: IWIAQALRXIGDXFNAYYARR
modifications: N-terminal acetyl (Ac); C-terminal amide (NH2); $ at 9 and 13 (alpha-methyl amino acids joined by an all-carbon eight-carbon crosslinker with a double bond)
As to B3, in data set [4], the “2% serum EC50” value was determined as 8.6 µM and the “10% serum EC50” value was determined as 26.5 µM. Besides, the Kd in data set [5] turned out to be 2.3 µM.

B4: Compound 15 (crosslinked polypeptide derived from human BIM BH3) (peptide)
peptide: Ac-RWIAQALR[S5]IGN[S5]FNAYYARR-NH2
modifications: staple 9-13
As for B4, in data set [4], the “2% serum EC50” value turned out to be 2.6 µM and the “10% serum EC50” value was determined as 11.5 µM. Moreover, the Kd in data set [5] was determined as 5.1 µM.

B5: Compound 16 (crosslinked polypeptide derived from human BIM BH3) (peptide)
peptide: Ac-IWIAQALR[S5]IGN[S5]FNAYYARR-NH2
modifications: staple 9-13
Turning to B5, in data set [4], the “2% serum EC50” value is 2.3 µM and the “10% serum EC50” value turned out to be 9.3 µM. Also, the Kd in data set [5] is 3.5 µM.

B6: Compound 13 (crosslinked polypeptide derived from human BIM BH3) (peptide)
peptide: Ac-RWIAQQLR[S5]IGD[S5]FNAYYARR-NH2
modifications: staple 9-13
Turning to B6, in data set [4], the “2% serum EC50” value was 5.4 µM and the “10% serum EC50” value was 21.5 µM. In data set [5], the Kd was 3.8 µM.

B7: Compound 11 (crosslinked polypeptide derived from human BIM BH3) (peptide)
peptide: Ac-IWIAQQLR[S5]IGD[S5]FNAYYARR-NH2
modifications: staple 9-13
B7: in data set [4], the “2% serum EC50” value was 7.9 µM and the “10% serum EC50” value amounted to 37.6 µM. Further, the Kd in data set [5] came to 1.1 µM.

B8: Compound 14 (crosslinked polypeptide derived from human BIM BH3) (peptide)
peptide: Ac-RWIAQALR[S5]IGD[S5]FNAFYARR-NH2
modifications: staple 9-13
Consider B8, for which, in data set [4], the “2% serum EC50” value was found to be 2.8 µM and the “10% serum EC50” value worked out at 10.8 µM. Moreover, in data set [5], the Kd stood at 2.3 µM.

B9: Compound 2 (crosslinked polypeptide derived from human BID BH3) (peptide)
peptide: Ac-DAARNIARHLA[S5]V[Aib]D[S5][Nle]ARSI-NH2
modifications: staple 12-16
Turning to B9, in data set [4], the “2% serum EC50” value is 20.5 µM and the “10% serum EC50” value was determined as 97.1 µM. In data set [5], the Kd was less than 0.1 µM.

B10: Compound 4 (crosslinked polypeptide derived from human BID BH3) (peptide)
peptide: Ac-DAIRNIARHLA[S5]V[Aib]D[S5][Nle]ARSI-NH2
modifications: staple 12-16
B10: in data set [4], the “2% serum EC50” value was determined as 11.3 µM and the “10% serum EC50” value was determined as 73.1 µM. In addition, the Kd in data set [5] is less than 0.1 µM.

B11: Compound 3 (crosslinked polypeptide derived from human BID BH3) (peptide)
peptide: Ac-DIARNIARHLA[S5]V[Aib]D[S5][Nle]ARSI-NH2
modifications: staple 12-16
Regarding B11, in data set [4], the “2% serum EC50” value was 14.9 µM and the “10% serum EC50” value is 88.9 µM. The Kd in data set [5] was less than 0.1 µM.

B12: Compound 9 (crosslinked polypeptide derived from human BID BH3) (peptide)
peptide: Propionyl-RNI[Aib]RHL[Aib][S5]V[Aib]D[S5]AARSI-NH2
modifications: staple 9-13
With B12, in data set [4], the “2% serum EC50” value came to 5.6 µM and the “10% serum EC50” value came out at 20.2 µM. Further, the Kd in data set [5] stood at 2.9 µM.

B13: Compound 17 (crosslinked polypeptide derived from human MAML peptide sequence) (peptide)
peptide: Ac-ERLRRRI[S5]LCR[S5]HHST-NH2
modifications: staple 8-12
notes: also called hMAML
For the molecule B13, in data set [4], the “2% serum EC50” value was 55.1 µM and the “10% serum EC50” value was more than 100 µM. Moreover, in data set [5], the Kd was less than 0.1 µM.

B14: Compound 18 (crosslinked polypeptide derived from human MAML peptide sequence) (peptide)
peptide: Ac-ERLRRRI[S5]LAR[S5]HHST-NH2
modifications: staple 8-12
notes: also called hMAML
As to B14, in data set [4], the “2% serum EC50” value is more than 100 µM and the “10% serum EC50” value was more than 100 µM. Further, the Kd in data set [5] was less than 0.1 µM.

By EC50 is commonly meant the concentration needed to bring the measured effect to its halfway point.
